Test results as given in publication PMC9445180.

Target: HTRA1^PD + 7-mer ABP (purified covalent complex of HTRA1^PD and biotin-DPMFKLV-phosphonate) (human) (UniProt Q92743)
Experiment: SPR; His6-tagged HTRA proteins (about 200 RU) captured with the His-capture kit on a CM5 chip, Fab15H6.v4 as analyte, single-cycle kinetics, three-fold dilutions from 1 nM or 1 μM; absence of binding verified with 3 μM Fab; Biacore S200, 25 °C, HBS-EP; 1:1 Langmuir model

HTRA1^PD + 7-mer ABP (purified covalent complex of HTRA1^PD and biotin-DPMFKLV-phosphonate) (human), sequence (Q92743 161-379, one chain of several): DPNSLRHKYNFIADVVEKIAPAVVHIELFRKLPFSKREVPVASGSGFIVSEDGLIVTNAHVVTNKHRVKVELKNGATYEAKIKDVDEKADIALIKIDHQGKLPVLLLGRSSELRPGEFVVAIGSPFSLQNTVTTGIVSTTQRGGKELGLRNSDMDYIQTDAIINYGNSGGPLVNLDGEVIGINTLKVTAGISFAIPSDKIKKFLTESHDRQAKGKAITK

- Kd: 0.21 nM
B1: Fab15H6.v4 (Fab, V domains shown)
VH: EVQLVQSGAEVKKPGASVKVSCKASGYKFTDSEMHWVRQAPGQGLEWIGGVDPETEGAAYNQKFKGRATITRDTSTSTAYLELSSLRSEDTAVYYCTRGYDYDYALDYWGQGTLVTVSS
VL: DIQMTQSPSSLSASVGDRVTITCRASSSVEFIHWYQQKPGKAPKPLISATSNLASGVPSRFSGSGSGTDFTLTISSLQPEDFATYYCQQWSSAPWTFGQGTKVEIK
